By Kd is commonly meant the free concentration of one partner at which half of the binding sites on the other are occupied at equilibrium, for simple one-to-one binding. The low end stands for higher affinity, the high end for lower affinity.

The target of assay [1] is T1, 2α PASB (HIF-2α PASB domain, 240-350) (UniProt Q99814 240-350, labelled with NT-647-NHS dye in MST; 15N (and 13C 15N) labelled in NMR).
T1 construct: range 240-350; also called PAS B domain of HIF-2α; not shown: His6 tag of vector pET28, then Met
T1 sequence (Q99814 240-350): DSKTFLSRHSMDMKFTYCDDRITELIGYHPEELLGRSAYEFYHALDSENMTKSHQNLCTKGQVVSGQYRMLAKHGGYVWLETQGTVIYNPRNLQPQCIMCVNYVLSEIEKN
Put plainly: fluorescence polarisation, 2α PASB titrated into 2 µM fluor-CRVIIF. As to the method: Kd values were determined by fluorescence polarisation (FP) using fluorescently labelled cyclo-CRVIIF (fluor-CRVIIF) (SEQ ID NO 4) dissolved in DMSO as the probe. In each condition, the concentration of the probe was kept constant (2 μM, 1% DMSO) whilst proteins were titrated. Reactions were performed in HIF assay buffer with the addition of 0.1% Triton X-100. Samples were assembled in black 96-well plates (40 μL/well, in triplicate) and allowed to equilibrate for 2 hr in the dark. Plates were read using a POLARstar Omega plate reader (BMG Labtech) at Ex: 490 nm, Em: 520 nm, with target gain set to 300 mP. Polarisation data were plotted and Kd values calculated by non-linear regression using GraphPad Prism 6.

Assay [2] addresses T2, HIF-2α (construct not given) (UniProt Q99814 1-360, limits assumed).
T2 construct: also called HIF-2 ELISA
The experiment in a line: HIF-2 ELISA, inhibition of HIF-2α/HIF-1β dimerisation. In general terms: ELISA stands for enzyme-linked immunosorbent assay.

T2 sequence (Q99814 1-360 limits assumed): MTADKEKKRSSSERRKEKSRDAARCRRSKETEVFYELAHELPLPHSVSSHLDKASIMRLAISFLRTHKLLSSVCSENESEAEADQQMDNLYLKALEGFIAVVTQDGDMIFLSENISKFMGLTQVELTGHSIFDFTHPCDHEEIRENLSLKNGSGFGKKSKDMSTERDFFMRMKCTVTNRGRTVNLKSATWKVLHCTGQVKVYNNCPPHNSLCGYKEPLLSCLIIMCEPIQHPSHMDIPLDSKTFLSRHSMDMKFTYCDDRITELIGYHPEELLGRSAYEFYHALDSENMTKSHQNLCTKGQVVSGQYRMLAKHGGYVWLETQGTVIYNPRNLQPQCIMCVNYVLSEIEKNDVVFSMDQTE

B1: fluorescently labelled cyclo-CRVIIF (fluor-CRVIIF) (SEQ ID NO 4) (peptide)
peptide: cyclo(C(FITC‑maleimide)RVIIF)
modifications: not fully specified; printed as fluor-CRVIIF
notes: also called FITC-CRVIIF
Take B1: the Kd in assay [1] was 18.5 µM. In assay [2], the “Activity as measured by a HIF-2 ELISA” value was 1.46 µM.

The values are drawn from patent publication US20190033318A1 (UNIVERSITY OF SOUTHAMPTON, published 2019).
